Series [1] has as its target CDA-ZnF-KLF1 E321K (mouse) (UniProt P46099). Kind of series: EMSA.
The target of the next series is WT-ZnF-KLF1 (mouse) (UniProt P46099). Kind of series: EMSA. (In general: A gel shift assay detects complexes by their altered migration in electrophoresis.)
WT-ZnF-KLF1 (mouse), sequence (P46099 275-358): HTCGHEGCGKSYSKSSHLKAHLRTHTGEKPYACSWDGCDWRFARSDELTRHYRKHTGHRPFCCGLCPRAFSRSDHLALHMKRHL

CDA-ZnF-KLF1 E321K (mouse), sequence (P46099 275-358 E321K): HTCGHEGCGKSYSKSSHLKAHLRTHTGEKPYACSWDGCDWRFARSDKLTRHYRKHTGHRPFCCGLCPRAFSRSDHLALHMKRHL

As a reminder, the Kd is the constant that tells how readily two partners part at equilibrium. beta-globin site: the Kd in series [1] came out at 238 µM; with WT-ZnF-KLF1 (mouse), 0.548 µM.

Values taken from article doi:10.1101/774158.
